Test results as given in patent US20240287172A1 (SCIRHOM, published 2024).

Biological target: T1, hiR2-FL-L438S-T7 (human, UniProt Q6PJF5 1-856)
T1 sequence: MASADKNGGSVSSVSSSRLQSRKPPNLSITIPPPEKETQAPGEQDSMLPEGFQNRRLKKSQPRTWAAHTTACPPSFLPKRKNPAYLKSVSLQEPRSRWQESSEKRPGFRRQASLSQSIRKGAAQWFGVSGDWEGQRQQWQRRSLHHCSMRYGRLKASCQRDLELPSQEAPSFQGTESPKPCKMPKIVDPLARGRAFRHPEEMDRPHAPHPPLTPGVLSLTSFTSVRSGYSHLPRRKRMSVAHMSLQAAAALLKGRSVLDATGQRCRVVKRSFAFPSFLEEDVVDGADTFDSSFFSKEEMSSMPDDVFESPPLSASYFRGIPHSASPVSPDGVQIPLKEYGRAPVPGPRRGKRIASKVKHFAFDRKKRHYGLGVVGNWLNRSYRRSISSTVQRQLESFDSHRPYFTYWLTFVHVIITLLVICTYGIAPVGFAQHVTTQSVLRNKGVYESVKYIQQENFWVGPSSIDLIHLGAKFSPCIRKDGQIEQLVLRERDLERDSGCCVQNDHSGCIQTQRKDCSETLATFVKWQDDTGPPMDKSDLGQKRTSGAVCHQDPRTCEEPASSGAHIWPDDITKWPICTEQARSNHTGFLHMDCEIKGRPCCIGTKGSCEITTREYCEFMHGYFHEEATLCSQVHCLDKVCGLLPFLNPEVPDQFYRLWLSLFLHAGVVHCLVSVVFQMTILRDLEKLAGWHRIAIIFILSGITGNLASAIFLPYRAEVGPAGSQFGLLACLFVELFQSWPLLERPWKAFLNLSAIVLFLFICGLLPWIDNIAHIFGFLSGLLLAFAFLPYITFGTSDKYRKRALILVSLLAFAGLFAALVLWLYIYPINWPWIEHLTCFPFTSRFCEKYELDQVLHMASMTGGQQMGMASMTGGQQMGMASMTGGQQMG
Assay: FACS, MEF-DKO cells, 3 µg/ml

B1: antibody 50 (antibody, V domains shown)
VH: QVQLQQSGAELVRPGASVKVSCKASGYAFSNYLIEWVKQRPGQGLEWIGVINPGSGFTKYNEKFKGKATLTADKSSSTAYMQLSSLTSEDSAVYFCARGLYRAMDYWGQGTSVTVSS
VL: DIQMTQSPASQSASLGESVTITCLASQTIGTWLAWYQQKPGKSPQLLIYAAASLADGVPSRFSGGGSGTKFSFKISSLQAEDFVNYYCQQIYSTPYTFGGGTKLEIK
notes: mouse IgG, kappa light chain; also called clone #50; purified antibody 50
loss of binding vs wild type: ≥ 30%
